Experimental data reported in paper PMC4546403.

Experiment: immunofluorescence, Hh-induced plasma membrane vs ER marker, Cl8
Conditions: glycan lost; control: wild type dSmo

Protein | localisation_or_trafficking
Drosophila Smo (dSmo): N95Q (protein) parent chain: MQYLNFPRMPNIMMFLEVAILCLWVVADASASSAKFGSTTPASAQQSDVELEPINGTLNYRLYAKKGRDDKPWFDGLDSRHIQCVRRARCYPTSNATNTCFGSKLPYELSSLDLTDFHTEKELNDKLNDYYALKHVPKCWAAIQPFLCAVFKPKCEKINGEDMVYLPSYEMCRITMEPCRILYNTTFFPKFLRCNETLFPTKCTNGARGMKFNGTGQCLSPLVPTDTSASYYPGIEGCGVRCKDPLYTDDEHRQIHKLIGWAGSICLLSNLFVVSTFFIDWKNANKYPAVIVFYINLCFLIACVGWLLQFTSGSREDIVCRKDGTLRHSEPTAGENLSCIVIFVLVYYFLTAGMVWFVFLTYAWHWRAMGHVQDRIDKKGSYFHLVAWSLPLVLTITTMAFSEVDGNSIVGICFVGYINHSMRAGLLLGPLCGVILIGGYFITRGMVMLFGLKHFANDIKSTSASNKIHLIIMRMGVCALLTLVFILVAIACHVTEFRHADEWAQSFRQFIICKISSVFEEKSSCRIENRPSVGVLQLHLLCLFSSGIVMSTWCWTPSSIETWKRYIRKKCGKEVVEEVKMPKHKVIAQTWAKRKDFEDKGRLSITLYNTHTDPVGLNFDVNDLNSSETNDISSTWAAYLPQCVKRRMALTGAATGNSSSHGPRKNSLDSEISVSVRHVSVESRRNSVDSQVSVKIAEMKTKVASRSRGKHGGSSSNRRTQRRRDYIAAATGKSSRRRESSTSVESQVIALKKTTYPNASHKVGVFAHHSSKKQHNYTSSMKRRTANAGLDPSILNEFLQKNGDFIFPFLQNQDMSSSSEEDNSRASQKIQDLNVVVKQQEISEDDHDGIKIEELPNSKQVALENFLKNIKKSNESNSNRHSRNSARSQSKKSQKRHLKNPAADLDFRKDCVKYRSNDSLSCSSEELDVALDVGSLLNSSFSGISMGKPHSRNSKTSCDVGIQANPFELVPSYGEDELQQAMRLLNAASRQRTEAANEDFGGTELQGLLGHSHRHQREPTFMSESDKLKMLLLPSK | no change
Drosophila Smo (dSmo): N95Q,N336Q (protein) parent chain: MQYLNFPRMPNIMMFLEVAILCLWVVADASASSAKFGSTTPASAQQSDVELEPINGTLNYRLYAKKGRDDKPWFDGLDSRHIQCVRRARCYPTSNATNTCFGSKLPYELSSLDLTDFHTEKELNDKLNDYYALKHVPKCWAAIQPFLCAVFKPKCEKINGEDMVYLPSYEMCRITMEPCRILYNTTFFPKFLRCNETLFPTKCTNGARGMKFNGTGQCLSPLVPTDTSASYYPGIEGCGVRCKDPLYTDDEHRQIHKLIGWAGSICLLSNLFVVSTFFIDWKNANKYPAVIVFYINLCFLIACVGWLLQFTSGSREDIVCRKDGTLRHSEPTAGENLSCIVIFVLVYYFLTAGMVWFVFLTYAWHWRAMGHVQDRIDKKGSYFHLVAWSLPLVLTITTMAFSEVDGNSIVGICFVGYINHSMRAGLLLGPLCGVILIGGYFITRGMVMLFGLKHFANDIKSTSASNKIHLIIMRMGVCALLTLVFILVAIACHVTEFRHADEWAQSFRQFIICKISSVFEEKSSCRIENRPSVGVLQLHLLCLFSSGIVMSTWCWTPSSIETWKRYIRKKCGKEVVEEVKMPKHKVIAQTWAKRKDFEDKGRLSITLYNTHTDPVGLNFDVNDLNSSETNDISSTWAAYLPQCVKRRMALTGAATGNSSSHGPRKNSLDSEISVSVRHVSVESRRNSVDSQVSVKIAEMKTKVASRSRGKHGGSSSNRRTQRRRDYIAAATGKSSRRRESSTSVESQVIALKKTTYPNASHKVGVFAHHSSKKQHNYTSSMKRRTANAGLDPSILNEFLQKNGDFIFPFLQNQDMSSSSEEDNSRASQKIQDLNVVVKQQEISEDDHDGIKIEELPNSKQVALENFLKNIKKSNESNSNRHSRNSARSQSKKSQKRHLKNPAADLDFRKDCVKYRSNDSLSCSSEELDVALDVGSLLNSSFSGISMGKPHSRNSKTSCDVGIQANPFELVPSYGEDELQQAMRLLNAASRQRTEAANEDFGGTELQGLLGHSHRHQREPTFMSESDKLKMLLLPSK | decreases
Drosophila Smo (dSmo): N184Q (protein) parent chain: MQYLNFPRMPNIMMFLEVAILCLWVVADASASSAKFGSTTPASAQQSDVELEPINGTLNYRLYAKKGRDDKPWFDGLDSRHIQCVRRARCYPTSNATNTCFGSKLPYELSSLDLTDFHTEKELNDKLNDYYALKHVPKCWAAIQPFLCAVFKPKCEKINGEDMVYLPSYEMCRITMEPCRILYNTTFFPKFLRCNETLFPTKCTNGARGMKFNGTGQCLSPLVPTDTSASYYPGIEGCGVRCKDPLYTDDEHRQIHKLIGWAGSICLLSNLFVVSTFFIDWKNANKYPAVIVFYINLCFLIACVGWLLQFTSGSREDIVCRKDGTLRHSEPTAGENLSCIVIFVLVYYFLTAGMVWFVFLTYAWHWRAMGHVQDRIDKKGSYFHLVAWSLPLVLTITTMAFSEVDGNSIVGICFVGYINHSMRAGLLLGPLCGVILIGGYFITRGMVMLFGLKHFANDIKSTSASNKIHLIIMRMGVCALLTLVFILVAIACHVTEFRHADEWAQSFRQFIICKISSVFEEKSSCRIENRPSVGVLQLHLLCLFSSGIVMSTWCWTPSSIETWKRYIRKKCGKEVVEEVKMPKHKVIAQTWAKRKDFEDKGRLSITLYNTHTDPVGLNFDVNDLNSSETNDISSTWAAYLPQCVKRRMALTGAATGNSSSHGPRKNSLDSEISVSVRHVSVESRRNSVDSQVSVKIAEMKTKVASRSRGKHGGSSSNRRTQRRRDYIAAATGKSSRRRESSTSVESQVIALKKTTYPNASHKVGVFAHHSSKKQHNYTSSMKRRTANAGLDPSILNEFLQKNGDFIFPFLQNQDMSSSSEEDNSRASQKIQDLNVVVKQQEISEDDHDGIKIEELPNSKQVALENFLKNIKKSNESNSNRHSRNSARSQSKKSQKRHLKNPAADLDFRKDCVKYRSNDSLSCSSEELDVALDVGSLLNSSFSGISMGKPHSRNSKTSCDVGIQANPFELVPSYGEDELQQAMRLLNAASRQRTEAANEDFGGTELQGLLGHSHRHQREPTFMSESDKLKMLLLPSK | no change
Drosophila Smo (dSmo): N184Q,N336Q (protein) parent chain: MQYLNFPRMPNIMMFLEVAILCLWVVADASASSAKFGSTTPASAQQSDVELEPINGTLNYRLYAKKGRDDKPWFDGLDSRHIQCVRRARCYPTSNATNTCFGSKLPYELSSLDLTDFHTEKELNDKLNDYYALKHVPKCWAAIQPFLCAVFKPKCEKINGEDMVYLPSYEMCRITMEPCRILYNTTFFPKFLRCNETLFPTKCTNGARGMKFNGTGQCLSPLVPTDTSASYYPGIEGCGVRCKDPLYTDDEHRQIHKLIGWAGSICLLSNLFVVSTFFIDWKNANKYPAVIVFYINLCFLIACVGWLLQFTSGSREDIVCRKDGTLRHSEPTAGENLSCIVIFVLVYYFLTAGMVWFVFLTYAWHWRAMGHVQDRIDKKGSYFHLVAWSLPLVLTITTMAFSEVDGNSIVGICFVGYINHSMRAGLLLGPLCGVILIGGYFITRGMVMLFGLKHFANDIKSTSASNKIHLIIMRMGVCALLTLVFILVAIACHVTEFRHADEWAQSFRQFIICKISSVFEEKSSCRIENRPSVGVLQLHLLCLFSSGIVMSTWCWTPSSIETWKRYIRKKCGKEVVEEVKMPKHKVIAQTWAKRKDFEDKGRLSITLYNTHTDPVGLNFDVNDLNSSETNDISSTWAAYLPQCVKRRMALTGAATGNSSSHGPRKNSLDSEISVSVRHVSVESRRNSVDSQVSVKIAEMKTKVASRSRGKHGGSSSNRRTQRRRDYIAAATGKSSRRRESSTSVESQVIALKKTTYPNASHKVGVFAHHSSKKQHNYTSSMKRRTANAGLDPSILNEFLQKNGDFIFPFLQNQDMSSSSEEDNSRASQKIQDLNVVVKQQEISEDDHDGIKIEELPNSKQVALENFLKNIKKSNESNSNRHSRNSARSQSKKSQKRHLKNPAADLDFRKDCVKYRSNDSLSCSSEELDVALDVGSLLNSSFSGISMGKPHSRNSKTSCDVGIQANPFELVPSYGEDELQQAMRLLNAASRQRTEAANEDFGGTELQGLLGHSHRHQREPTFMSESDKLKMLLLPSK | decreases
Drosophila Smo (dSmo): N195Q,N336Q (protein) parent chain: MQYLNFPRMPNIMMFLEVAILCLWVVADASASSAKFGSTTPASAQQSDVELEPINGTLNYRLYAKKGRDDKPWFDGLDSRHIQCVRRARCYPTSNATNTCFGSKLPYELSSLDLTDFHTEKELNDKLNDYYALKHVPKCWAAIQPFLCAVFKPKCEKINGEDMVYLPSYEMCRITMEPCRILYNTTFFPKFLRCNETLFPTKCTNGARGMKFNGTGQCLSPLVPTDTSASYYPGIEGCGVRCKDPLYTDDEHRQIHKLIGWAGSICLLSNLFVVSTFFIDWKNANKYPAVIVFYINLCFLIACVGWLLQFTSGSREDIVCRKDGTLRHSEPTAGENLSCIVIFVLVYYFLTAGMVWFVFLTYAWHWRAMGHVQDRIDKKGSYFHLVAWSLPLVLTITTMAFSEVDGNSIVGICFVGYINHSMRAGLLLGPLCGVILIGGYFITRGMVMLFGLKHFANDIKSTSASNKIHLIIMRMGVCALLTLVFILVAIACHVTEFRHADEWAQSFRQFIICKISSVFEEKSSCRIENRPSVGVLQLHLLCLFSSGIVMSTWCWTPSSIETWKRYIRKKCGKEVVEEVKMPKHKVIAQTWAKRKDFEDKGRLSITLYNTHTDPVGLNFDVNDLNSSETNDISSTWAAYLPQCVKRRMALTGAATGNSSSHGPRKNSLDSEISVSVRHVSVESRRNSVDSQVSVKIAEMKTKVASRSRGKHGGSSSNRRTQRRRDYIAAATGKSSRRRESSTSVESQVIALKKTTYPNASHKVGVFAHHSSKKQHNYTSSMKRRTANAGLDPSILNEFLQKNGDFIFPFLQNQDMSSSSEEDNSRASQKIQDLNVVVKQQEISEDDHDGIKIEELPNSKQVALENFLKNIKKSNESNSNRHSRNSARSQSKKSQKRHLKNPAADLDFRKDCVKYRSNDSLSCSSEELDVALDVGSLLNSSFSGISMGKPHSRNSKTSCDVGIQANPFELVPSYGEDELQQAMRLLNAASRQRTEAANEDFGGTELQGLLGHSHRHQREPTFMSESDKLKMLLLPSK | decreases
Drosophila Smo (dSmo): N195Q (protein) parent chain: MQYLNFPRMPNIMMFLEVAILCLWVVADASASSAKFGSTTPASAQQSDVELEPINGTLNYRLYAKKGRDDKPWFDGLDSRHIQCVRRARCYPTSNATNTCFGSKLPYELSSLDLTDFHTEKELNDKLNDYYALKHVPKCWAAIQPFLCAVFKPKCEKINGEDMVYLPSYEMCRITMEPCRILYNTTFFPKFLRCNETLFPTKCTNGARGMKFNGTGQCLSPLVPTDTSASYYPGIEGCGVRCKDPLYTDDEHRQIHKLIGWAGSICLLSNLFVVSTFFIDWKNANKYPAVIVFYINLCFLIACVGWLLQFTSGSREDIVCRKDGTLRHSEPTAGENLSCIVIFVLVYYFLTAGMVWFVFLTYAWHWRAMGHVQDRIDKKGSYFHLVAWSLPLVLTITTMAFSEVDGNSIVGICFVGYINHSMRAGLLLGPLCGVILIGGYFITRGMVMLFGLKHFANDIKSTSASNKIHLIIMRMGVCALLTLVFILVAIACHVTEFRHADEWAQSFRQFIICKISSVFEEKSSCRIENRPSVGVLQLHLLCLFSSGIVMSTWCWTPSSIETWKRYIRKKCGKEVVEEVKMPKHKVIAQTWAKRKDFEDKGRLSITLYNTHTDPVGLNFDVNDLNSSETNDISSTWAAYLPQCVKRRMALTGAATGNSSSHGPRKNSLDSEISVSVRHVSVESRRNSVDSQVSVKIAEMKTKVASRSRGKHGGSSSNRRTQRRRDYIAAATGKSSRRRESSTSVESQVIALKKTTYPNASHKVGVFAHHSSKKQHNYTSSMKRRTANAGLDPSILNEFLQKNGDFIFPFLQNQDMSSSSEEDNSRASQKIQDLNVVVKQQEISEDDHDGIKIEELPNSKQVALENFLKNIKKSNESNSNRHSRNSARSQSKKSQKRHLKNPAADLDFRKDCVKYRSNDSLSCSSEELDVALDVGSLLNSSFSGISMGKPHSRNSKTSCDVGIQANPFELVPSYGEDELQQAMRLLNAASRQRTEAANEDFGGTELQGLLGHSHRHQREPTFMSESDKLKMLLLPSK | no change
